We go through one protein from US20200046811.

The target of the series is T1, Recombinant Human FGF23 (Fibroblast Growth Factor 23), Q9GZV9.
T1 chain: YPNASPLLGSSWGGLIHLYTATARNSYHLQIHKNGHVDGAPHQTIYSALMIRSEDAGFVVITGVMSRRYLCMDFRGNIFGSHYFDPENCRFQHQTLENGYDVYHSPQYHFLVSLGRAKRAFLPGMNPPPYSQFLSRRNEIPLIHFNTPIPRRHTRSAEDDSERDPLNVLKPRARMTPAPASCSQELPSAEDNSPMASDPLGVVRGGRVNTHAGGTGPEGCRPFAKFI

B1: Recombinant human t-PA (tissue plasminogen activator) (protein)
chain: SYQVICRDEKTQMIYQQHQSWLRPVLRSNRVEYCWCNSGRAQCHSVPVKSCSEPRCFNGGTCQQALYFSDFVCQCPEGFAGKCCEIDTRATCYEDQGISYRGTWSTAESGAECTNWNSSALAQKPYSGRRPDAIRLGLGNHNYCRNPDRDSKPWCYVFKAGKYSSEFCSTPACSEGNSDCYFGNGSAYRGTHSLTESGASCLPWNSMILIGKVYTAQNPSAQALGLGKHNYCRNPDGDAKPWCHVLKNRRLTWEYCDVPSCSTCGLRQYSQPQFRIKGGLFADIASHPWQAAIFAKHRRSPGERFLCGGILISSCWILSAAHCFQERFPPHHLTVILGRTYRVVPGEEEQKFEVEKYIVHKEFDDDTYDNDIALLQLKSDSSRCAQESSVVRTVCLPPADLQLPDWTECELSGYGKHEALSPFYSERLKEAHVRLYPSSRCTSQHLLNRTVTDNMLCAGDTRSGGPQANLHDACQGDSGGPLVCLNDGRMTLVGIISWGLGCGQKDVPGVYTKVTNYLDWIRDNMRP
Take B1: the “in vitro proteolysis of FGF23, silver stained SDS-PAGE gel” value is listed as “smaller fragments are generated on a silver stained SDS-PAGE gel indicating proteolytic cleavage”.
